Test results: patent US20240002495A1 (MITSUBISHI TANABE PHARMA, published 2024)

How the values were obtained:
[1] = molecular target: T1, 6His-AviTag-linked cynomolgus monkey IL-33 (residues 112 to 269) (cynomolgus monkey, UniProt O95760 112-269 (human entry), biotin on the AviTag portion (BirA) in the SPR of Example 7; used without biotinylation in Example 10); assay: cell-based or functional assay
T1 chain: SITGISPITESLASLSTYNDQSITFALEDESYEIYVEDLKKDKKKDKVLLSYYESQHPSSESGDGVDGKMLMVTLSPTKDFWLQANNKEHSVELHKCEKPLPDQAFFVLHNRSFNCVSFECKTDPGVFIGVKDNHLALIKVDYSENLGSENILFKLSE

[2] = molecular target: T2, recombinant human IL-33 protein (residues 112 to 270) (ILC0701, ATGen Co. Ltd) (human, UniProt O95760 112-270); assay: cell-based or functional assay
T2 sequence: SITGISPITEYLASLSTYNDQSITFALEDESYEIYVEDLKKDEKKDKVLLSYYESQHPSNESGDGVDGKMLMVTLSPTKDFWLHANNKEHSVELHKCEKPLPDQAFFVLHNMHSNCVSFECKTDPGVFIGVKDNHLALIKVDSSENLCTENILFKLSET

[3] = molecular target: T3, full-length human IL-33 protein (human, UniProt O95760 1-270); assay: KinExA in PBS, alkaline-purified IgG
T3 construct: also called Human IL-33 (Full-Length)
T3 sequence: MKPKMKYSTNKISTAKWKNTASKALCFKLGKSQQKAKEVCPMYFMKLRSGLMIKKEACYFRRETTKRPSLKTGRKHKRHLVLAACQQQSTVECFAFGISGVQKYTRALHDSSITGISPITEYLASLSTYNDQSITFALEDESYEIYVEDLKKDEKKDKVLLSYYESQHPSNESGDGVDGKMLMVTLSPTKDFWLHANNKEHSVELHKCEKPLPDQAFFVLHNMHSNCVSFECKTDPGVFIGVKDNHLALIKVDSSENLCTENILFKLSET
Protocol: (§1) Mixture samples of a test antibody and a human IL-33 protein (ILC0701, available from ATGen Co. Ltd) were prepared. The human IL-33 protein was titrated to a constant concentration of test antibody (final concentration: several tens of pM to several hundreds of pM) over a wide concentration range of the human IL-33 protein (so that it covered the concentrations of the human IL-33 protein resulting from 12-step serial doubling dilutions, i.e. one- to 2048-fold, with the upper limit of final concentration set to several nM to several tens of nM). The mixture samples were incubated at a room temperature until the antigen-antibody reaction reached equilibrium. After the reaction reached equilibrium, the percentage of free anti-IL-33 antibody in each sample was analyzed using KinExA3200. The values of Kd were calculated by fitting the plot of percentages of anti-IL-33 antibody not bound to the human IL-33 protein (vertical axis) and concentrations of antigen (horizontal axis) to a theoretical formula, using a KinExA data analysis program (KinExA Pro Software v3.5.3, available from Sapidyne Instruments, Inc.). Beads for capturing the anti-IL-33 antibody were prepared by suspending 50 mg of Azlactone beads (Sapidyne) in 1 mL of coating solution (10 μg/mL human IL-33 protein (ILC0701, available from ATGen Co. Ltd), 50 mM sodium carbonate at pH of 9.6) and incubating the solution at a room temperature for one hour. The antibody for detection used was anti-human F(ab)′2-DyLight649 (Jackson, 309-495-006).

[4] = molecular target: T2, recombinant human IL-33 protein …; assay: KinExA in PBS, alkaline-purified IgG
Protocol: as §1

[5] = molecular target: T2, recombinant human IL-33 protein …; assay: SPR (Biacore T200), human IL-33 (ILC0701) immobilized on CM5, Calibration Free Concentration Analysis of the preserved antibody against a control-preserved sample
Protocol: Each alkaline-purified antibody was dissolved in a citrate buffer (50 mM citric acid; 150 mM NaCl (pH: 6.3)) at a concentration of about 10 mg/mL, and was preserved at a temperature of 40° C. for four weeks, to evaluate the preservation stability of each test antibody (IgG). For evaluation of the monomer purity of each antibody after the preservation, monomer purity was measured by size exclusion chromatography analysis (SEC) and microchip capillary SDS electrophoresis (mCE-SDS), and antigen-binding activity was measured by surface plasmon resonance.
In order to confirm the presence of the antigen-binding ability after the preservation, the antigen-binding activity was measured with a surface plasmon resonance system, Biacore T200 (available from GE Healthcare). A human IL-33 protein (ILC0701, available from ATGen Co. Ltd) was immobilized onto a Sensor Chip CM5 (GE Healthcare) (the amount of immobilized protein was about 3000 to 6000 RU) with Amine Coupling Kit (GE Healthcare). Each preserved antibody solution was then diluted to 10-fold with a citric buffer (50 mM citric acid, 150 mM NaCl (pH: 6.3)), and the resulting solution was analyzed to measure the total protein concentration in the solution, using a microvolume spectrophotometer, Astragene II (Astranet Systems, Ltd.) (protein concentration: about 1 mg/mL). The antibody solution after the measurement of the total protein concentration was diluted to 1000-fold with HBS-EP buffer (10 mM HEPES, 150 mM NaCl, 3 mM EDTA, 0.05% (v/v) Surfactant P20 (at pH of 7.4)). The analyte was thereby prepared. The measurement temperature was 25° C. Each analyte was added for 36 seconds at two flow rates of 5 μL/min and 100 μL/min to obtain sensorgrams of the association phase. The sensorgrams were then analyzed by Calibration Free Concentration Analysis using a data analysis program (GE Healthcare, Biacore T200 Evaluation Software v1.0) to determine the concentration of the antibody having antigen-binding activity. As control, each test antibody after preservation at a temperature of 4° C. for four weeks was also analyzed to confirm the antigen-binding activity, to calculate the ratio of antigen-binding activity of each test antibody after the preservation at a temperature of 40° C. for four weeks.

B1: A10-1C04 (IgG) (antibody, V domains shown)
VH: EVQLLESGGGLVQPGGSLRLSCAASGFTFSDYYMNWVRQAPGKGLEWVSSISRYSSYIYYADSVKGRFTISRDNSKNTLYLQMNSLRAEDTAVYYCARDIGGMDVWGQGTLVTVSS
VL: QSVLTQPPSASGTPGQRVTISCTGSSSNIGAVYDVHWYQQLPGTAPKLLIYRNNQRPSGVPDRFSGSKSGTSASLAISGLRSEDEADYYCQTYDSSRWVFGGGTKLTVL
notes: tested as neutral-purified and as alkaline-purified antibody; also called V1; IGN1
B1 was tested, and the “IC50 of inhibition of IL-6 production by HUVEC (alkaline-purified IgG, cynomolgus monkey IL-33 100 ng/mL, not biotinylated)” value [1] was 0.43 mg/L, the “IC50 of inhibition of IL-6 production by HUVEC (alkaline-purified IgG, human IL-33 100 ng/mL)” value [2] was 0.35 mg/L and the “inhibition of IFN-γ production by human PBMC (alkaline-purified IgG 10 ug/mL, IL-33 10 ng/mL, IL-12 10 ng/mL)” value [2] was 96.9%. The “inhibition of production of IL-5 and IL-13 by KU-812 cells (alkaline-purified IgG 1 ug/mL; IL-33 3 ng/mL with IL-3 and C5a)” value [2] was ≥ 50%, the “percentage of inhibition (%) of IL-6 production by HUVEC (neutral-purified IgG 1 ug/mL, IL-33 100 ng/mL)” value [2] was 67% and the Kd [3] was 0.18 nM. The Kd [4] was 0.1 nM and the “% Active IgG (antigen binding activity after preservation at 40 C for 4 W)” value [5] was 99.3%.
